The target in this data set is T1, CHF-1Flu (tomato aspermy virus).
T1 chain: RKRHKLNR
The data set can be described thus: fluorescence polarization. In general terms: In fluorescence polarisation assays a small probe gives low polarisation when free and higher when bound to something large.

Consider one molecule from article PMC10528708.

By Kd is commonly meant the concentration at which binding is half-saturated. Read a low Kd as a tighter complex.

The molecule CTGCTGCTGCTGCTGCTGCTGCTGCTGCTG (structured_DNA) [d(CTG)10] had a Kd of 440 ± 79 nM.
